# Patent US12138315 (Daiichi Sankyo, dated 2024)
# T1: human CD37 protein (human, UniProt P11049 1-281)
# T1 construct: Four-pass transmembrane tetraspanin
# T1 sequence: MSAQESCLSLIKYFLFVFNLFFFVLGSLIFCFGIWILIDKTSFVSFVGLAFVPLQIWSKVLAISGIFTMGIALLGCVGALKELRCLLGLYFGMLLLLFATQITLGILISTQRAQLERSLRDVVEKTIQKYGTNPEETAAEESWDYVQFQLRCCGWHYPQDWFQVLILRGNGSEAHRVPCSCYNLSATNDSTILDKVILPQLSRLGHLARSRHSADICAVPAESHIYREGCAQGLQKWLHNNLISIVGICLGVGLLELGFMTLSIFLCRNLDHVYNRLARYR
# Molecular target: T1, human CD37 protein
# Assay: flow cytometry on OCI-LY7 cells, FITC anti-human IgG Fc secondary
# Procedure: 4)-1 Evaluation of Binding Activity of Humanized Anti-CD37 Antibody-Drug Conjugate The binding activity of the four antibody-drug conjugates (clone names: hmAb-H11L11-DXd, hmAb-H541L11-DXd, hmAb-H551L11-DXd, and hmAb-H11aL11-DXd) produced in Example 2 was evaluated by flow cytometry. CD37-positive human diffuse large B-cell lymphoma cell line OCI-LY7 (DSMZ) cultured in IMDM medium supplemented with 20% FBS under conditions of 37° C. and 5% CO_2 were recovered and centrifuged. After removal of the supernatant, the cells were suspended by the addition of each of the four antibody-drug conjugates or a negative control antibody-drug conjugate (hmAb-IgG1-DXd) produced using human IgG at each concentration. The cells were left standing at 4° C. for 1 hour. The cells were washed twice with PBS supplemented with 5% FBS, and then suspended by the addition of FLUORESCEIN (FITC)-AffiniPure F(ab')2 Fragment Goat Anti-Human IgG, Fcγ Fragment Specific (Jackson ImmunoResearch Laboratories, Inc.) that had been 100-fold diluted with PBS supplemented with 5% FBS. The cells were left standing at 4° C. for 30 minutes. The cells were washed twice with PBS supplemented with 5% FBS, followed by detection using a flow cytometer (BD LSRFortessa TM X-20, BD Biosciences). The data was analyzed using FlowJo (Tree Star, Inc.). In FIG. 6, the abscissa depicts antibody concentration (μg/ml), and the ordinate depicts the amount of the antibody bound by MFI (mean fluorescence intensity).
row,Binder,binding result
1,"hmAb-H11L11-DXd (antibody, V domains shown, drug linker on sulfhydryl groups of reduced interchain disulfide cysteines; positions not given; drug linker (maleimidocaproyl-GGFG-DXd, exatecan derivative) on sulfhydryl groups of reduced interchain disulfide cysteines by thioether bond; average number of conjugated drug molecules per antibody 7.4 to 7.7 (common procedure F); positions not given, also called hmAb-H11L11-ADC) VH: EVQLVQSGAEVKKPGASVKVSCKASGYSFTDYNMYWVRQAPGQSLEWMGYIDPYNGDTTYNQKFQGRVTITADTSTSTAYMELSSLRSEDTAVYYCARSPYGHYAMDYWGQGTLVTVSS VL: DIQMTQSPSSLSASVGDRVTITCKASQDVSTAVDWYQQKPGKAPKLLINWASTRHTGVPSRFSGSGSGTDFTLTISSLQPEDFATYYCRQHYSTPFTFGQGTKVEIKR",binds
2,"hmAb-H11aL11-DXd (antibody, human IgG1, kappa, V domains shown, drug linker on sulfhydryl groups of reduced interchain disulfide cysteines; positions not given; drug linker (maleimidocaproyl-GGFG-DXd, exatecan derivative) on sulfhydryl groups of reduced interchain disulfide cysteines by thioether bond; average number of conjugated drug molecules per antibody 7.6 (common procedure F); positions not given, also called hmAb-H11aL11-ADC) VH: EVQLVQSGAEVKKPGASVKVSCKASGYSFTDYNMYWVRQAPGQSLEWMGYIDPYNGDTTYNQKFQGRVTITADKSKSTAYMELSSLRSEDTAVYYCARSPYGHYAMDYWGQGTLVTVSS VL: DIQMTQSPSSLSASVGDRVTITCKASQDVSTAVDWYQQKPGKAPKLLINWASTRHTGVPSRFSGSGSGTDFTLTISSLQPEDFATYYCRQHYSTPFTFGQGTKVEIKR",binds
3,"hmAb-H541L11-DXd (antibody, human IgG1, kappa, V domains shown, drug linker on sulfhydryl groups of reduced interchain disulfide cysteines; positions not given; drug linker (maleimidocaproyl-GGFG-DXd, exatecan derivative) on sulfhydryl groups of reduced interchain disulfide cysteines by thioether bond; average number of conjugated drug molecules per antibody 7.8 (common procedure F); positions not given, also called hmAb-H541L11-ADC) VH: EVQLVQSGAEVKKPGASVKVSCKASGYSFTDYNMYWVRQAPGQSLEWMGYIDPYNGDTTYNQKFQGRVTMTRDTSISTAYMELSRLRSDDTAVYYCARSPYGHYAMDYWGQGTTVTVSS VL: DIQMTQSPSSLSASVGDRVTITCKASQDVSTAVDWYQQKPGKAPKLLINWASTRHTGVPSRFSGSGSGTDFTLTISSLQPEDFATYYCRQHYSTPFTFGQGTKVEIKR",binds

# More lines, now with the values ahead:
row,binding result,Binder
1,binds,"hmAb-H11L11 (antibody, human IgG1, kappa, V domains shown, Unconjugated humanized IgG1 kappa antibody derived from mouse HH1; also called anti-CD37 humanized antibody having hmAb-H11 as a heavy chain and hmAb-L11 as a light chain) VH: EVQLVQSGAEVKKPGASVKVSCKASGYSFTDYNMYWVRQAPGQSLEWMGYIDPYNGDTTYNQKFQGRVTITADTSTSTAYMELSSLRSEDTAVYYCARSPYGHYAMDYWGQGTLVTVSS VL: DIQMTQSPSSLSASVGDRVTITCKASQDVSTAVDWYQQKPGKAPKLLINWASTRHTGVPSRFSGSGSGTDFTLTISSLQPEDFATYYCRQHYSTPFTFGQGTKVEIKR"
2,binds,"hmAb-H11aL11 (antibody, human IgG1, kappa, V domains shown, Unconjugated humanized IgG1 kappa antibody; also called anti-CD37 humanized antibody having hmAb-H11a as a heavy chain and hmAb-L11 as a light chain) VH: EVQLVQSGAEVKKPGASVKVSCKASGYSFTDYNMYWVRQAPGQSLEWMGYIDPYNGDTTYNQKFQGRVTITADKSKSTAYMELSSLRSEDTAVYYCARSPYGHYAMDYWGQGTLVTVSS VL: DIQMTQSPSSLSASVGDRVTITCKASQDVSTAVDWYQQKPGKAPKLLINWASTRHTGVPSRFSGSGSGTDFTLTISSLQPEDFATYYCRQHYSTPFTFGQGTKVEIKR"
3,binds,"hmAb-H551L11-DXd (antibody, human IgG1, kappa, V domains shown, drug linker on sulfhydryl groups of reduced interchain disulfide cysteines; positions not given; drug linker (maleimidocaproyl-GGFG-DXd, exatecan derivative) on sulfhydryl groups of reduced interchain disulfide cysteines by thioether bond; average number of conjugated drug molecules per antibody 7.8 (common procedure F); positions not given, also called hmAb-H551L11-ADC) VH: EVQLVQSGAEVKKPGASVKVSCKASGYSFTDYNMYWVRQAPGQSLEWMGYIDPYNGDTTYNQKFQGRVTMTRDTSSSTAYMELSRLRSDDTAVYYCARSPYGHYAMDYWGQGTTVTVSS VL: DIQMTQSPSSLSASVGDRVTITCKASQDVSTAVDWYQQKPGKAPKLLINWASTRHTGVPSRFSGSGSGTDFTLTISSLQPEDFATYYCRQHYSTPFTFGQGTKVEIKR"
4,binds,"hmAb-H551L11 (antibody, human IgG1, kappa, V domains shown, Unconjugated humanized IgG1 kappa antibody; also called anti-CD37 humanized antibody having hmAb-H551 as a heavy chain and hmAb-L11 as a light chain) VH: EVQLVQSGAEVKKPGASVKVSCKASGYSFTDYNMYWVRQAPGQSLEWMGYIDPYNGDTTYNQKFQGRVTMTRDTSSSTAYMELSRLRSDDTAVYYCARSPYGHYAMDYWGQGTTVTVSS VL: DIQMTQSPSSLSASVGDRVTITCKASQDVSTAVDWYQQKPGKAPKLLINWASTRHTGVPSRFSGSGSGTDFTLTISSLQPEDFATYYCRQHYSTPFTFGQGTKVEIKR"
5,binds,"hmAb-H541L11 (antibody, human IgG1, kappa, V domains shown, Unconjugated humanized IgG1 kappa antibody; also called anti-CD37 humanized antibody having hmAb-H541 as a heavy chain and hmAb-L11 as a light chain) VH: EVQLVQSGAEVKKPGASVKVSCKASGYSFTDYNMYWVRQAPGQSLEWMGYIDPYNGDTTYNQKFQGRVTMTRDTSISTAYMELSRLRSDDTAVYYCARSPYGHYAMDYWGQGTTVTVSS VL: DIQMTQSPSSLSASVGDRVTITCKASQDVSTAVDWYQQKPGKAPKLLINWASTRHTGVPSRFSGSGSGTDFTLTISSLQPEDFATYYCRQHYSTPFTFGQGTKVEIKR"
